In PMC3731272, “Evidence for a Novel Mechanism of the PAK1 Interaction with the Rho-GTPases Cdc42 and Rac” (PLoS ONE, 2013):

Molecular target: T1, GFP-PAK1^S79A (UniProt Q13153 1-545, S79A)
T1 construct: source: 293T cells, expressed, in cell extract / lysate
Assay: co-IP; GFP-PAK1 (WT or S79A) coexpressed with Myc-Cdc42 in 293T cells; extracts immunoprecipitated with anti-GFP, blotted with anti-Myc; lysis buffer 50 mM HEPES pH 7.4, 150 mM NaCl, 1 mM EDTA, 10% glycerol, 1% Triton X100 with phosphatase inhibitors; antibodies overnight at 4°C
Conditions: partners not purified

T1 sequence (Q13153 whole entry S79A): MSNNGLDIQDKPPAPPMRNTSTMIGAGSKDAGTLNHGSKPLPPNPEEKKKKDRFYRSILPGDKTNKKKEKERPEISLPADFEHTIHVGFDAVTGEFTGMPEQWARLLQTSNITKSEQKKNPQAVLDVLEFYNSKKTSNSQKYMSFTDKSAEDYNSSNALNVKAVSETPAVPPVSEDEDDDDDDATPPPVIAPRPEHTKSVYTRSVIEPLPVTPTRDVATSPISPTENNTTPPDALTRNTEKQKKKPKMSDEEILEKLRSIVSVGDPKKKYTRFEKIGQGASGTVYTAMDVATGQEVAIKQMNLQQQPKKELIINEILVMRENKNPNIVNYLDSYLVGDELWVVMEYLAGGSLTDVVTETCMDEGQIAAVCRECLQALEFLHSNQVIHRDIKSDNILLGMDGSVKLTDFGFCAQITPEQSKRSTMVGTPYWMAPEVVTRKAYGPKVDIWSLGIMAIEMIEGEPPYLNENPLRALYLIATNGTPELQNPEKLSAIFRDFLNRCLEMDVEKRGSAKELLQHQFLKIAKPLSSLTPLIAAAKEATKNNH

B1: Myc-Cdc42 (natural protein)
chain: not shown
notes: Rho GTPase Cdc42; source: 293T cells, coexpressed, in cell extract
fold reduction of binding against wild type PAK1: ~3 fold
